The target of data set [1] is Hfq wt (Escherichia coli, UniProt P0A6X3 1-102). The data set can be described thus: analytical ultracentrifugation.
Data set [2] concerns the target Hfq-NA (Escherichia coli, UniProt P0A6X3 1-102). The data set can be described thus: analytical ultracentrifugation.

Take AAAAAAAAAAAAAAAAAA (ssRNA) [FAM-rA18]: the binding result in data set [1] and in data set [2] was “binds” in each case.

Source of the values: publication PMC3072145.
